pEC50: −log10 of the molar value.
Assays:
[1] = molecular target: T1, C5aR2 (Homo sapiens, UniProt Q9P296); assay: BRET β-arrestin […] recruitment to C5aR2 in transfected HEK293 cells (partial agonist); assay type: cell-based
T1 construct: human C5aR2-Venus

[2] = molecular target: human C3aR on Chinese hamster ovary cells stably expressing C3aR (CHO-C3aR) (human) (UniProt Q16581)
[3] = molecular target: human C3aR of human monocyte-derived macrophages (HMDMs) (human (endogenous in HMDMs)) (UniProt Q16581)
human C3aR of human monocyte-derived macrophages (HMDMs) (human (endogenous in HMDMs)), sequence (Q16581 whole entry): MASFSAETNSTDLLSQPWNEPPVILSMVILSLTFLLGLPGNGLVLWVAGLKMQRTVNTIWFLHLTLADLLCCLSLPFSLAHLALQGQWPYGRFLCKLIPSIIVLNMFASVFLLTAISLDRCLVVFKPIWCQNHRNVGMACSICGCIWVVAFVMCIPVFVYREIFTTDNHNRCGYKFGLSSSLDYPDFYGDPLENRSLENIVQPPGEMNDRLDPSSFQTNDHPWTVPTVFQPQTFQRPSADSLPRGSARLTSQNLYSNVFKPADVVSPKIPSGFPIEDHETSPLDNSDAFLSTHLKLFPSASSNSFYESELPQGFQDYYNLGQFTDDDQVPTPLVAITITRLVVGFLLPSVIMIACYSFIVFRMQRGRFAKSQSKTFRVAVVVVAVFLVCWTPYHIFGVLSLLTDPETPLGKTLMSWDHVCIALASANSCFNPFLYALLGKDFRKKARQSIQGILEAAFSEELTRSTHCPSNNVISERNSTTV

purified human C3a, sequence (P01024 672-748): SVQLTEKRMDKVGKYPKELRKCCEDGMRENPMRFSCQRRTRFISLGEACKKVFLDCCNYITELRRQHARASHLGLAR
T1 sequence (Q9P296 whole entry): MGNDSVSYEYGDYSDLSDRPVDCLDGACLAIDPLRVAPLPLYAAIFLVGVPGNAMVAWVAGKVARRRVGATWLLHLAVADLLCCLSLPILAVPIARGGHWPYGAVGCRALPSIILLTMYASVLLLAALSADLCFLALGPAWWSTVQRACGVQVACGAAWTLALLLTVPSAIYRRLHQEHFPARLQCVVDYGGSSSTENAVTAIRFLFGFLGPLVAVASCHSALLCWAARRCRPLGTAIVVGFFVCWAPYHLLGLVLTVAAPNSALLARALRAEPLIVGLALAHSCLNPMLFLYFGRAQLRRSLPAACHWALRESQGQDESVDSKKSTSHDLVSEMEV
human C3aR on Chinese hamster ovary cells stably expressing C3aR (CHO-C3aR) (human), sequence (Q16581 whole entry): as the sequence (Q16581 whole entry) above

Compound | pEC50 [1] | phosphorylation of ERK1/2 in CHO-C3aR cells (AlphaLISA, 10 min), EC50 [2] [nM] | phosphorylation of ERK1/2 in HMDMs (AlphaLISA, 10 min), EC50 [3] [nM]
N=C(N)NCCC[C@H](NC(=O)COCC(c1ccccc1)c1ccccc1)C(=O)O [SB290157] | 4.79 |  | 
purified human C3a (from UniProt P01024 672-748) (ligand) |  | 0.39 | 0.21

Source: publication PMC7859635, “The “C3aR Antagonist” SB290157 is a Partial C5aR2 Agonist” (Frontiers in Pharmacology, 2021)
